# B1: MERS-CoV RBD (residues 367-588) (domain or fragment)
# chain: EAKPSGSVVEQAEGVECDFSPLLSGTPPQVYNFKRLVFTNCNYNLTKLLSLFSVNDFTCSQISPAAIASNCYSSLILDYFSYPLSMKSDLSVSSAGPISQFNYKQSFSNPTCLILATVPHNLTTITKPLKYSYINKCSRFLSDDRTEVPQLVNANQYSPCVSIVPSTVWEDGDYYRKQLSPLEGGGWLVASGSTVAMTEQLQMGFGITVQYGTDTNSVCPKL
# Target: ectodomain of human DPP4 (residues 39-766) (human, UniProt P27487 39-766)
# Assay: SPR
binder,measurement,value
B1,binding result,binds

# From paper PMC7104183 (Cell Reports, 2018)
